Data on 19 variants can be found in IntAct's records for PubMed 21217703.

The chains are these.
B1: Telomeric repeat-binding factor 2-interacting protein 1 (Homo sapiens), Q9NYB0 (parent)
chain: MAEAMDLGKDPNGPTHSSTLFVRDDGSSMSFYVRPSPAKRRLSTLILHGGGTVCRVQEPGAVLLAQPGEALAEASGDFISTQYILDCVERNERLELEAYRLGPASAADTGSEAKPGALAEGAAEPEPQRHAGRIAFTDADDVAILTYVKENARSPSSVTGNALWKAMEKSSLTQHSWQSLKDRYLKHLRGQEHKYLLGDAPVSPSSQKLKRKAEEDPEAADSGEPQNKRTPDLPEEEYVKEEIQENEEAVKKMLVEATREFEEVVVDESPPDFEIHITMCDDDPPTPEEDSETQPDEEEEEEEEKVSQPEVGAAIKIIRQLMEKFNLDLSTVTQAFLKNSGELEATSAFLASGQRADGYPIWSRQDDIDLQKDDEDTREALVKKFGAQNVARRIEFRKK
B2: Telomeric repeat-binding factor 2 (Homo sapiens), Q15554 (parent)
chain: MAAGAGTAGPASGPGVVRDPAASQPRKRPGREGGEGARRSDTMAGGGGSSDGSGRAAGRRASRSSGRARRGRHEPGLGGPAERGAGEARLEEAVNRWVLKFYFHEALRAFRGSRYGDFRQIRDIMQALLVRPLGKEHTVSRLLRVMQCLSRIEEGENLDCSFDMEAELTPLESAINVLEMIKTEFTLTEAVVESSRKLVKEAAVIICIKNKEFEKASKILKKHMSKDPTTQKLRNDLLNIIREKNLAHPVIQNFSYETFQQKMLRFLESHLDDAEPYLLTMAKKALKSESAASSTGKEDKQPAPGPVEKPPREPARQLRNPPTTIGMMTLKAAFKTLSGAQDSEAAFAKLDQKDLVLPTQALPASPALKNKRPRKDENESSAPADGEGGSELQPKNKRMTISRLVLEEDSQSTEPSAGLNSSQEAASAPPSKPTVLNQPLPGEKNPKVPKGKWNSSNGVEEKETWVEEDELFQVQAAPDEDSTTNITKKQKWTVEESEWVKAGVQKYGEGNWAAISKNYPFVNRTAVMIKDRWRTMKRLGMN
partner: B1 chain
B3: Telomere length regulator taz1 (Schizosaccharomyces pombe (strain ATCC 38366 / 972)), P79005 (parent)
chain: MISVQSTETIQKVLENEGDQQFDKEVVQNSDSNIETGQISDSLTKAVEERAETESSSNLSNFTTSESESSKPAYCFNSHSQNMAEGSISIPVISHSMNVENEVSTAEGQDSRTGESENDQNAMIVRSIWDIEKASLLVNDCQNIANMAEQKVMMVSAIFSESSKDIVNPESFSERLGKETVKDLYEFNEQLTTKYGLEFRTIFFSYIRKYDAYWCLFEDLEKPLKSIQFFTGLIDLLDNTNKHLTLRSIVLDALLSADEEDSFYGDALVLFEELVIRYFGTDSNPSIDASEFILSCLPYTSLDALNVVCGQVWKSQKICDFLKSTIGNTSNSPLQLRASFPAFVNAVIHFLLEFKNVRRLERKDLSVKGMLYDSDSQQILNRLRERVSGSTAQSADEASGHESDASEDTFSERTLGLNSIDNTEISEVVSLGLVSSALDKITGLLSADNLSETVSQARDFSHTLSKSLKSRAKSLSQKEAANRSKLIAKRGDNLRREASLSSEQDDLSEDFPPVRESDEQESRSGGRSSAMRVSIERSAARSGTRRSQGNPYEGYRTRRKWTDEEENELYEMISQHGCCWSKIIHIQKLENGPLKTFGPTQIKDKARLIKARFMKQNRLQELYSKSLNWKNVTVGQAYCELHKIPYIEATPPLLREELVNYQS
partner: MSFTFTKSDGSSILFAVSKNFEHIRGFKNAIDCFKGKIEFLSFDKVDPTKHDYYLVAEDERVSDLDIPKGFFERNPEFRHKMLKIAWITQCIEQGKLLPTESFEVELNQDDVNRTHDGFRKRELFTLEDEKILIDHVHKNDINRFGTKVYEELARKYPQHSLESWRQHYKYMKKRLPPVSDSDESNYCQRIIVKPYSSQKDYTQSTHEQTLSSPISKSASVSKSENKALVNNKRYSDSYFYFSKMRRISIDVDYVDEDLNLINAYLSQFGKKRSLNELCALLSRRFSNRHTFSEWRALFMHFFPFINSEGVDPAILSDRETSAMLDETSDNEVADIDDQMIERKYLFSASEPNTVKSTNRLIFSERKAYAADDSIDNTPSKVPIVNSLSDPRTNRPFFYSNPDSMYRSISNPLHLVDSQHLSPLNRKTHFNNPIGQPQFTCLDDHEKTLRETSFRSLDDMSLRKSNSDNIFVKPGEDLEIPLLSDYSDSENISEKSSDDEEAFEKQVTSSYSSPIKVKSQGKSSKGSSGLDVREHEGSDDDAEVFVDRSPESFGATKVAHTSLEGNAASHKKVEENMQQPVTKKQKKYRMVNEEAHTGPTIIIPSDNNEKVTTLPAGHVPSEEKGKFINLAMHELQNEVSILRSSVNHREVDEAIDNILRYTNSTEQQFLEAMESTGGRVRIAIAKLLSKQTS
B4: DNA-binding protein rap1 (Schizosaccharomyces pombe (strain ATCC 38366 / 972)), Q96TL7 (parent)
chain: B3 partner
partner: B3 chain
B5: DNA-binding protein RAP1 (Saccharomyces cerevisiae), P11938 (parent)
chain: MSSPDDFETAPAEYVDALDPSMVVVDSGSAAVTAPSDSAAEVKANQNEENTGATAAETSEKVDQTEVEKKDDDDTTEVGVTTTTPSIADTAATANIASTSGASVTEPTTDDTAADEKKEQVSGPPLSNMKFYLNRDADAHDSLNDIDQLARLIRANGGEVLDSKPRESKENVFIVSPYNHTNLPTVTPTYIKACCQSNSLLNMENYLVPYDNFREVVDSRLQEESHSNGVDNSNSNSDNKDSIRPKTEIISTNTNGATEDSTSEKVMVDAEQQARLQEQAQLLRQHVSSTASITSGGHNDLVQIEQPQKDTSNNNNSNVNDEDNDLLTQDNNPQTADEGNASFQAQRSMISRGALPSHNKASFTDEEDEFILDVVRKNPTRRTTHTLYDEISHYVPNHTGNSIRHRFRVYLSKRLEYVYEVDKFGKLVRDDDGNLIKTKVLPPSIKRKFSADEDYTLAIAVKKQFYRDLFQIDPDTGRSLITDEDTPTAIARRNMTMDPNHVPGSEPNFAAYRTQSRRGPIAREFFKHFAEEHAAHTENAWRDRFRKFLLAYGIDDYISYYEAEKAQNREPEPMKNLTNRPKRPGVPTPGNYNSAAKRARNYSSQRNVQPTANAASANAAAAAAAAASNSYAIPENELLDEDTMNFISSLKNDLSNISNSLPFEYPHEIAEAIRSDFSNEDIYDNIDPDTISFPPKIATTDLFLPLFFHFGSTRQFMDKLHEVISGDYEPSQAEKLVQDLCDETGIRKNFSTSILTCLSGDLMVFPRYFLNMFKDNVNPPPNVPGIWTHDDDESLKSNDQEQIRKLVKKHGTGRMEMRKRFFEKDLL

The variants in the first assay derive from B1. The conditions noted are these: with terf2_human TERF2, Q15554.
For the variant MAEAMDLGKDPNGPTHSSTLFVRDDGSSMSFYVRPSPAKRRLSTLILHGGGTVCRVQEPGAVLLAQPGEALAEASGDFISTQYILDCVERNERLELEAYRLGPASAADTGSEAKPGALAEGAAEPEPQRHAGRIAFTDADDVAILTYVKENARSPSSVTGNALWKAMEKSSLTQHSWQSLKDRYLKHLRGQEHKYLLGDAPVSPSSQKLKRKAEEDPEAADSGEPQNKRTPDLPEEEYVKEEIQENEEAVKKMLVEATREFEEVVVDESPPDFEIHITMCDDDPPTPEEDSETQPDEEEEEEEEKVSQPEVGAAIKIRRQLMEKFNLDLSTVTQAFLKNSGELEATSAFLASGQRADGYPIWSRQDDIDLQKDDEDTREALVKKFGAQNVARRIEFRKK [I318R], the “effect of a mutation on the interaction” value was “disrupting interaction”.

On to MAEAMDLGKDPNGPTHSSTLFVRDDGSSMSFYVRPSPAKRRLSTLILHGGGTVCRVQEPGAVLLAQPGEALAEASGDFISTQYILDCVERNERLELEAYRLGPASAADTGSEAKPGALAEGAAEPEPQRHAGRIAFTDADDVAILTYVKENARSPSSVTGNALWKAMEKSSLTQHSWQSLKDRYLKHLRGQEHKYLLGDAPVSPSSQKLKRKAEEDPEAADSGEPQNKRTPDLPEEEYVKEEIQENEEAVKKMLVEATREFEEVVVDESPPDFEIHITMCDDDPPTPEEDSETQPDEEEEEEEEKVSQPEVGAAIKIIRQLMEKFNLDLSTVTQARLKNSGELEATSAFLASGQRADGYPIWSRQDDIDLQKDDEDTREALVKKFGAQNVARRIEFRKK [F336R], for which the “effect of a mutation on the interaction” value is reported as “disrupting interaction”.

The variants in another assay derive from B2. The conditions noted are these: with te2ip_human TERF2IP.
Regarding L330R, the “effect of a mutation on the interaction” value is reported as “disrupting interaction strength”.

As to L330E, the “effect of a mutation on the interaction” value is reported as “disrupting interaction strength”.

Variants of B3 are the subject of another assay. The conditions noted are these: with rap1_schpo rap1, Q96TL7.
On to R384E, for which the “effect of a mutation on the interaction” value was “decreasing interaction”.

In the case of L380R, the “effect of a mutation on the interaction” value is “decreasing interaction”.

As for L383A, the “effect of a mutation on the interaction” value was “disrupting interaction”.

With L383R, the “effect of a mutation on the interaction” value is “disrupting interaction”.

I379R: the “effect of a mutation on the interaction” value is “disrupting interaction strength”.

Consider I379A, for which the “effect of a mutation on the interaction” value was “disrupting interaction strength”.

With R386E, the “effect of a mutation on the interaction” value is on record as “disrupting interaction”.

The variants in a further assay derive from B3. The conditions noted are these: with rap1_schpo rap1, Q96TL7. This is another data set of the same source.
Take V387R: the “effect of a mutation on the interaction” value was “decreasing interaction”.

With I379R, the “effect of a mutation on the interaction” value is given as “disrupting interaction”.

In a further assay the parent is B4. The conditions noted are these: with taz1_schpo taz1, P79005.
Turning to I655R, the “effect of a mutation on the interaction” value is “disrupting interaction”.

As to V651R, the “effect of a mutation on the interaction” value is “decreasing interaction”.

Variants of B5 are the subject of another assay. The conditions noted are these: with sir3_yeast SIR3, P06701.
Chain of sir3_yeast SIR3, P06701 (P06701 whole entry): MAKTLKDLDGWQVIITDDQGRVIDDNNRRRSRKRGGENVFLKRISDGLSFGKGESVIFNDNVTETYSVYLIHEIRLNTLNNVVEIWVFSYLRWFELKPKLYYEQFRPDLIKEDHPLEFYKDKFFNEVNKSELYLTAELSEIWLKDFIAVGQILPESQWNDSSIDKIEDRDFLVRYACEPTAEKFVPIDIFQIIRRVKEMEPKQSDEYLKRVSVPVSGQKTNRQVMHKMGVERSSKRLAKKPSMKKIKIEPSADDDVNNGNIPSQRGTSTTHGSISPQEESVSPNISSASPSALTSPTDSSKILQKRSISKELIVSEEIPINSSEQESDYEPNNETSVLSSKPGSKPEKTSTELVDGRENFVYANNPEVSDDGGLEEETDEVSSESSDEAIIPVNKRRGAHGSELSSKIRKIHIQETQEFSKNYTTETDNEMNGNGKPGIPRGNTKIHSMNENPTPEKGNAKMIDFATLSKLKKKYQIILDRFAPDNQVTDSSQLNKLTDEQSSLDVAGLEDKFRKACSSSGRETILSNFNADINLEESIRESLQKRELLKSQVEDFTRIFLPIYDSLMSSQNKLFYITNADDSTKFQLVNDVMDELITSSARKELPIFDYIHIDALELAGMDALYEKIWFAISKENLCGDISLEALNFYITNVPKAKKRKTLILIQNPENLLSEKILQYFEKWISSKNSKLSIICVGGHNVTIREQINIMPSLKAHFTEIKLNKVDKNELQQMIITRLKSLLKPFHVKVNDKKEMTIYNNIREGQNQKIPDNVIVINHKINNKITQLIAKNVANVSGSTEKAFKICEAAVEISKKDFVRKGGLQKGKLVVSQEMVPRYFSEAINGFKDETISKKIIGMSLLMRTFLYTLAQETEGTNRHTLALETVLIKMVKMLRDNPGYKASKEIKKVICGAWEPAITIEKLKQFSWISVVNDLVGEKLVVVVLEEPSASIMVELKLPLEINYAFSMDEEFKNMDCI
On to L755R, for which the “effect of a mutation on the interaction” value is reported as “disrupting interaction”.

In the case of P730R, the “effect of a mutation on the interaction” value is “decreasing interaction”.

For A733R, the “effect of a mutation on the interaction” value is listed as “disrupting interaction”.

In the case of V737R, the “effect of a mutation on the interaction” value is “disrupting interaction”.

For the variant G760R, the “effect of a mutation on the interaction” value was “disrupting interaction”.
